Assay [1] concerns the target T1, USP7-CTD (Homo sapiens, UniProt Q93009).
T1 construct: USP7-CTD (535–1102); His tag (inferred from nickel-NTA purification; vector p15TV-L); made in house; host or cells: E. coli BL21(DE3)mgk
Kind of assay: GST pull-down, USP7-CTD. In kind it is binding. Conditions: GST pull-down; GST-ICP0 594–775, GST-GMPS and GST-UHRF1 peptides and mutants; Fig 3H, 4C-F. The procedure: (§1) Fragments representing USP7-CTD Ubl domains were prepared using ligation independent cloning with In-Fusion (Clontech) in p15TV-L. The boundaries of the Ubl domain constructs are Ubl12 (535–776), Ubl123 (535–889), Ubl345 (776–1102), Ubl45 (886–1102) and USP7-CTD (535–1102). Plasmids expressing USP7-NTD, USP7, and myc-USP7 WT (pCANmycUSP7) were described previously. USP7 mutants E759A, D762A, D764A and D762A/D764A in Ubl123 were synthesized (Genscript) and inserted into the pET15b plasmid. USP7 mutants E759A, D762A, D764A, D762A/D764A and D762R/D764R in USP7-CTD were prepared by ACGT Corporation. The D762R/D764R mutant was then sub-cloned into wild-type pCANmycUSP7 for co-IP assays. The mammalian ICP0 expression construct pCI-110 ICP0 was obtained from Roger Everett.
(§2) The ICP0, GMPS and UHRF1 WT and mutant peptides were cloned into pGEX-2TK and expressed in E. coli BL21(DE3). GST-ICP0 594–775 was obtained from Roger Everett. The GST-ICP0 or GST-GMPS or GST-UHRF1 or GST-ICP0 594–775 cell pellets from 500 ml of LB broth were re-suspended with PBS and lysed using sonication. The cleared lysates were applied to 500 μl of equilibrated glutathione-sepharose beads and incubated with rocking for 60 min at 4°C. Unbound proteins were removed by washing with PBS. Bound proteins were eluted with 50 mM Tris pH 8.0 and 100 mM NaCL containing 30 mM reduced glutathione. […]

Assay [2] concerns USP7-CTD mutant D762R/D764R. Kind of assay: GST pull-down, USP7-CTD D762R/D764R. The format is binding, human. The procedure:
as §1, §2

T1 sequence (Q93009 535-1102): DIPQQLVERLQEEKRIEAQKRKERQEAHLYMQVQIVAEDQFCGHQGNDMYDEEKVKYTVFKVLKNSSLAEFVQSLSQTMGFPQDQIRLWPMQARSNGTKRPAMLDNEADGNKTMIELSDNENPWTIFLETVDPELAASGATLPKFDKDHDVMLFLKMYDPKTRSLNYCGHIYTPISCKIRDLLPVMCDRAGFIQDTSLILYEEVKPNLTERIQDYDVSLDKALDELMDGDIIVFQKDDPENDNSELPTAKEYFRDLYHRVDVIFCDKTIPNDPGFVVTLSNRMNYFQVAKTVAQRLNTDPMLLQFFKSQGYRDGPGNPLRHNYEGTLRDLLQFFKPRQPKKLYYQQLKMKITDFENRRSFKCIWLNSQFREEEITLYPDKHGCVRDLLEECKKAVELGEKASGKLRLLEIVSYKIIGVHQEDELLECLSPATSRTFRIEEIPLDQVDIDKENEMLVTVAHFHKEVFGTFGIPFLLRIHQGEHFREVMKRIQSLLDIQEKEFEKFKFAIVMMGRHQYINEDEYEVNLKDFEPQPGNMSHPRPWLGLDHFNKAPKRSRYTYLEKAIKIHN

B1: GST-ICP0 594–775: longer ICP0 peptide corresponding to residues 594–775 (protein)
chain: AVGALGGRQEETSLGPRAASGPRGPRKCARKTRHAETSGAVPAGGLTRYLPISGVSSVVALSPYVNKTITGDCLPILDMETGNIGAYVVLVDQTGNMATRLRAAVPGWSRRTLLPETAGNHVMPPEYPTAPASEWNSLWMTPVGNMLFDQGTLVGALDFRSLRSRHPWSGEQGASTRDEGKQ
modifications: left off: GST, end not stated, kept
B1: in assay [1], the “Binding to WT USP7-CTD” value was “interaction was observed”. The “Binding to USP7-CTD mutant D762R/D764R” value in assay [2] is given as “not D762R/D764R USP7-CTD”.

For the origin of these results see publication PMC4457826 (PLoS Pathogens, 2015).
